This is an account of results in patent US20040014134.

The target in this data set is Fusion protein B (variant 2; rsGFP - cleavage site segment with TEV protease cleavage site - DsRed).

B1: TEV protease (protease from the tobacco etch virus) (protein)
chain: GESLFKGPRDYNPISSTICHLTNESDGHTTSLYGIGFGPFIITNKHLFRRNNGTLLVQSLHGVFKVKNTTTLQQHLIDGRDMIIIRMPKDFPPFPQKLKFREPQREERICLVTTNFQTKSMSSMVSDTSCTFPSSDGIFWKHWIQTKDGQCGSPLVSTRDGFIVGIHSASNFTNTNNYFTSVPKNFMELLTNQEAQQWVSGWRLNADSVLWGGHKVFMSKPEEPFQPVKEATQLMNELVYSQ
As for B1, the “two-photon cross-correlation amplitude (dual-colour FCS protease cleavage assay)” value was “The cleavage of the bond and the consequent reduction of the proportion of double fluorescing molecules in the measurement solution cause the decrease of the cross-correlation amplitude”.
